According to US20030134325A1:
Each block holds one substance with its values, some of them ahead of it.

How the values were obtained:
[1] = target: phycobilisome-GAM conjugate (glutaraldehyde-stabilized P. cruentum phycobilisomes conjugated to affinity-purified, Fc-specific goat anti-mouse IgG); assay: microtiter displacement of conjugate prebound to RIgG-coated wells (competitor RIgG); MIgG 1 ng/test
[2] = target: phycobilisome-GAM conjugate (glutaraldehyde-stabilized P. cruentum phycobilisomes conjugated to affinity-purified, Fc-specific goat anti-mouse IgG); assay: microtiter displacement of conjugate prebound to RIgG-coated wells (competitor RIgG); MIgG 100 ng/test
[3] = target: phycobilisome-GAM conjugate (glutaraldehyde-stabilized P. cruentum phycobilisomes conjugated to affinity-purified, Fc-specific goat anti-mouse IgG); assay: displacement of conjugate prebound to BIOMAG-RIgG (competitor RIgG); MIgG 100 ng/test
[4] = target: phycobilisome-GAM conjugate (glutaraldehyde-stabilized P. cruentum phycobilisomes conjugated to affinity-purified, Fc-specific goat anti-mouse IgG); assay: displacement of conjugate prebound to BIOMAG-RIgG (competitor RIgG); MIgG 10 ng/test
[5] = target: phycobilisome-GAM conjugate (glutaraldehyde-stabilized P. cruentum phycobilisomes conjugated to affinity-purified, Fc-specific goat anti-mouse IgG); assay: microtiter displacement of conjugate prebound to RIgG-coated wells (competitor RIgG); MIgG 1,000 ng/test
[6] = target: phycobilisome-GAM conjugate (glutaraldehyde-stabilized P. cruentum phycobilisomes conjugated to affinity-purified, Fc-specific goat anti-mouse IgG); assay: microtiter displacement of conjugate prebound to RIgG-coated wells (competitor RIgG); MIgG 10 ng/test
[7] = target: phycobilisome-GAM conjugate (glutaraldehyde-stabilized P. cruentum phycobilisomes conjugated to affinity-purified, Fc-specific goat anti-mouse IgG); assay: displacement of conjugate prebound to BIOMAG-RIgG (competitor RIgG); MIgG 10,000 ng/test
[8] = target: phycobilisome-GAM conjugate (glutaraldehyde-stabilized P. cruentum phycobilisomes conjugated to affinity-purified, Fc-specific goat anti-mouse IgG); assay: displacement of conjugate prebound to BIOMAG-RIgG (competitor RIgG); MIgG 1 ng/test
[9] = target: phycobilisome-GAM conjugate (glutaraldehyde-stabilized P. cruentum phycobilisomes conjugated to affinity-purified, Fc-specific goat anti-mouse IgG); assay: displacement of conjugate prebound to BIOMAG-RIgG (competitor RIgG); MIgG 1,000 ng/test
[10] = target: mouse immunoglobulin (MIgG); assay: photometric; PB-GAM 12 ug/test, soluble MIgG 0, BIOMAG-MIgG 100 ug/test
[11] = target: mouse immunoglobulin (MIgG); assay: photometric; PB-GAM 40 ug/test, BIOMAG-MIgG 100 ug/test
[12] = target: mouse immunoglobulin (MIgG); assay: photometric; PB-GAM 40 ug/test, soluble MIgG 10 ug/test, BIOMAG-MIgG 30 ug/test
[13] = target: mouse immunoglobulin (MIgG); assay: 50 ul conjugate (80 ug/ml) + BIOMAG-MIgG 1 mg/test; soluble MIgG 1 ng/test
[14] = target: mouse immunoglobulin (MIgG); assay: photometric; PB-GAM 3 ug/test, soluble MIgG 10 ug/test, BIOMAG-MIgG 300 ug/test
[15] = target: mouse immunoglobulin (MIgG); assay: photometric; PB-GAM 40 ug/test, soluble MIgG 10 ug/test, BIOMAG-MIgG 300 ug/test
[16] = target: mouse immunoglobulin (MIgG); assay: photometric; PB-GAM 3 ug/test, soluble MIgG 0, BIOMAG-MIgG 100 ug/test
[17] = target: mouse immunoglobulin (MIgG); assay: competitive fluoroimmunoassay; 250 ng conjugate, 250 ug BIOMAG-MIgG per test; soluble MIgG 10 ng/test
[18] = target: mouse immunoglobulin (MIgG); assay: photometric; PB-GAM 40 ug/test, soluble MIgG 0, BIOMAG-MIgG 300 ug/test
[19] = target: mouse immunoglobulin (MIgG); assay: photometric; PB-GAM 3 ug/test, soluble MIgG 10 ug/test, BIOMAG-MIgG 30 ug/test
[20] = target: mouse immunoglobulin (MIgG); assay: photometric; PB-GAM 3 ug/test, soluble MIgG 10 ug/test, BIOMAG-MIgG 100 ug/test
[21] = target: mouse immunoglobulin (MIgG); assay: 50 ul conjugate (80 ug/ml) + BIOMAG-MIgG 1 mg/test; soluble MIgG 0
[22] = target: mouse immunoglobulin (MIgG); assay: photometric; PB-GAM 12 ug/test, soluble MIgG 10 ug/test, BIOMAG-MIgG 300 ug/test
[23] = target: mouse immunoglobulin (MIgG); assay: photometric; PB-GAM 3 ug/test, BIOMAG-MIgG 30 ug/test
[24] = target: mouse immunoglobulin (MIgG); assay: photometric; PB-GAM 40 ug/test, soluble MIgG 0, BIOMAG-MIgG 30 ug/test
[25] = target: mouse immunoglobulin (MIgG); assay: competitive fluoroimmunoassay; 250 ng conjugate, 250 ug BIOMAG-MIgG per test; soluble MIgG 0
rabbit IgG (RIgG) [26] = assay: microtiter displacement assay; conjugate prebound to RIgG-coated wells; MIgG 0 ng/test (baseline)
[27] = target: mouse immunoglobulin (MIgG); assay: photometric; PB-GAM 12 ug/test, BIOMAG-MIgG 30 ug/test
[28] = target: mouse immunoglobulin (MIgG); assay: 50 ul conjugate (80 ug/ml) + BIOMAG-MIgG 1 mg/test; soluble MIgG 10 ug/test
[29] = target: mouse immunoglobulin (MIgG); assay: competitive fluoroimmunoassay; 250 ng conjugate, 250 ug BIOMAG-MIgG per test; soluble MIgG 1 ng/test
[30] = target: mouse immunoglobulin (MIgG); assay: photometric; PB-GAM 40 ug/test, BIOMAG-MIgG 300 ug/test
[31] = target: mouse immunoglobulin (MIgG); assay: photometric; PB-GAM 12 ug/test, BIOMAG-MIgG 100 ug/test
[32] = target: mouse immunoglobulin (MIgG); assay: photometric; PB-GAM 3 ug/test, soluble MIgG 0, BIOMAG-MIgG 30 ug/test
[33] = target: mouse immunoglobulin (MIgG); assay: photometric; PB-GAM 3 ug/test, BIOMAG-MIgG 300 ug/test
[34] = target: mouse immunoglobulin (MIgG); assay: competitive fluoroimmunoassay; 250 ng conjugate, 250 ug BIOMAG-MIgG per test; soluble MIgG 1,000 ng/test
[35] = target: mouse immunoglobulin (MIgG); assay: photometric; PB-GAM 12 ug/test, BIOMAG-MIgG 300 ug/test
[36] = target: mouse immunoglobulin (MIgG); assay: photometric; PB-GAM 12 ug/test, soluble MIgG 0, BIOMAG-MIgG 30 ug/test
[37] = target: mouse immunoglobulin (MIgG); assay: binding to BIOMAG-MIgG, solid phase in pseudo-excess; fluorescence
[38] = target: mouse immunoglobulin (MIgG); assay: photometric; PB-GAM 12 ug/test, soluble MIgG 10 ug/test, BIOMAG-MIgG 100 ug/test
[39] = target: mouse immunoglobulin (MIgG); assay: photometric; PB-GAM 40 ug/test, BIOMAG-MIgG 30 ug/test
[40] = target: mouse immunoglobulin (MIgG); assay: photometric; PB-GAM 40 ug/test, soluble MIgG 10 ug/test, BIOMAG-MIgG 100 ug/test
[41] = target: mouse immunoglobulin (MIgG); assay: photometric; PB-GAM 12 ug/test, soluble MIgG 10 ug/test, BIOMAG-MIgG 30 ug/test
rabbit IgG (RIgG) [42] = assay: displacement assay; conjugate prebound to BIOMAG-RIgG; MIgG 0 ng/test (baseline)
[43] = target: mouse immunoglobulin (MIgG); assay: competitive fluoroimmunoassay; 250 ng conjugate, 250 ug BIOMAG-MIgG per test; soluble MIgG 100 ng/test
[44] = target: mouse immunoglobulin (MIgG); assay: photometric; PB-GAM 3 ug/test, soluble MIgG 0, BIOMAG-MIgG 300 ug/test
[45] = target: mouse immunoglobulin (MIgG); assay: photometric; PB-GAM 40 ug/test, soluble MIgG 0, BIOMAG-MIgG 100 ug/test
[46] = target: mouse immunoglobulin (MIgG); assay: photometric; PB-GAM 12 ug/test, soluble MIgG 0, BIOMAG-MIgG 300 ug/test
[47] = target: mouse immunoglobulin (MIgG); assay: photometric; PB-GAM 3 ug/test, BIOMAG-MIgG 100 ug/test
[48] = target: mouse immunoglobulin (MIgG); assay: binding to BIOMAG-MIgG; fluorescence

% of maximal displacement [1]: 36.8% | E666 (fluorescence) [1]: 411000 cps | displacement [1]: 68000 cps | % of maximal displacement [2]: 98.4% | E666 (fluorescence) [2]: 525000 cps | displacement [2]: 182000 cps | % of maximal displacement [3]: 35.3% | E666 (supernatant fluorescence) [3]: 1.16e+06 cps | displacement [3]: 109000 cps | % of maximal displacement [4]: 10.4% | E666 (supernatant fluorescence) [4]: 1.08e+06 cps | displacement [4]: 32000 cps | % of maximal displacement [5]: 100% | E666 (fluorescence) [5]: 528000 cps | displacement [5]: 185000 cps | % of maximal displacement [6]: 73% | E666 (fluorescence) [6]: 478000 cps | displacement [6]: 135000 cps | % of maximal displacement [7]: 100% | E666 (supernatant fluorescence) [7]: 1.36e+06 cps | displacement [7]: 309000 cps | % of maximal displacement [8]: 6.1% | E666 (supernatant fluorescence) [8]: 1.07e+06 cps | displacement [8]: 19000 cps | % of maximal displacement [9]: 62.5% | E666 (supernatant fluorescence) [9]: 1.25e+06 cps | displacement [9]: 193000 cps
Substance: mouse immunoglobulin (MIgG) (antibody)

Supernatant Absorbance [10]: 54 mAU/ml | % binding [11]: 4.7% | Supernatant Absorbance [12]: 210 mAU/ml | % bound [13]: 28% | MIgG inhibition [13]: 547000 cps | Supernatant E666 [13]: 2.79e+06 cps | Supernatant Absorbance [14]: 12 mAU/ml | Supernatant Absorbance [15]: 213 mAU/ml | Supernatant Absorbance [16]: 10 mAU/ml | % bound [17]: 11.1% | E666 [17]: 439000 cps | inhibition [17]: 65000 cps | Supernatant Absorbance [18]: 173 mAU/ml | Supernatant Absorbance [19]: 12 mAU/ml | Supernatant Absorbance [20]: 12 mAU/ml | % bound [21]: 42.1% | Supernatant E666 [21]: 2.24e+06 cps | Supernatant Absorbance [22]: 66 mAU/ml | % binding [23]: 0% | Supernatant Absorbance [24]: 210 mAU/ml | % bound [25]: 24.3% | E666 [25]: 374000 cps | E666 (fluorescence) (rabbit IgG (RIgG) [26]): 343000 cps | % binding [27]: 4.5% | % bound [28]: 0% | MIgG inhibition [28]: 1.63e+06 cps | Supernatant E666 [28]: 3.88e+06 cps | % bound [29]: 19% | E666 [29]: 400000 cps | inhibition [29]: 26000 cps | % binding [30]: 18.8% | % binding [31]: 20.6% | Supernatant Absorbance [32]: 12 mAU/ml | % binding [33]: 66.7% | % bound [34]: 0% | E666 [34]: 494000 cps | inhibition [34]: 120000 cps | % binding [35]: 33.3% | Supernatant Absorbance [36]: 63 mAU/ml | % specific binding [37]: < 60% | Supernatant Absorbance [38]: 68 mAU/ml | % binding [39]: 0% | Supernatant Absorbance [40]: 212 mAU/ml | Supernatant Absorbance [41]: 66 mAU/ml | E666 (supernatant fluorescence) (rabbit IgG (RIgG) [42]): 1.05e+06 cps | % bound [43]: 0.8% | E666 [43]: 490000 cps | inhibition [43]: 116000 cps | Supernatant Absorbance [44]: 4 mAU/ml | Supernatant Absorbance [45]: 200 mAU/ml | Supernatant Absorbance [46]: 44 mAU/ml | % binding [47]: 16.7%
Substance: phycobilisome-GAM conjugate (glutaraldehyde-stabilized P. cruentum phycobilisomes conjugated to affinity-purified, Fc-specific goat anti-mouse IgG) (antibody)

% specific binding [48]: 60%
Substance: GAM antibody conjugated by glutaraldehyde to formaldehyde-stabilized phycobilisomes
